Data: patent publication US9303249B2, “High concentration α-glucosidase compositions for the treatment of Pompe disease” (Amicus Therapeutics, Inc., priority 2012, dated 2016)

What was measured:
Assay type in all cases: in vivo, mouse
GAA KO mice [1] = assay: Tissue rhGAA activity after repeat SQ dosing between the shoulder blades (Example 13); conditions: Lumizyme 20 mg/kg +/− 1-DNJ 30 mg/kg SQ, 4 doses (Mon and Thu), 3 days after last dose
Protocol: 12-week old male GAA KO mice in groups of 7 were used in the present study. Each group of mice was administered one of the following treatments:
(2) Lumizyme® alone (20 mg/kg) delivered subcutaneously (SQ); or
(3) Co-formulated Lumizyme® (20 mg/kg) and 1-DNJ (30 mg/kg) SQ.
Each of the treatments were administered to their respective treatment group for a period of 2 weeks. The treatments were administered on Monday and Thursday of each week. SQ injections were administered between the shoulder blades of each mouse receiving treatment. A total of 4 doses was administered to each study animal. Diphenhydramine was administered intraperitoneally (IP) before the 3rd and 4th doses.
(§1) Tissue samples were collected to determine rhGAA uptake 3 days following the last dose of the study (i.e., 3 days post dose 4). Tissue samples included heart, diaphragm, tongue, brain, spleen, liver, biceps, triceps, quadriceps, soleus, gastrocnemius, ventral skin and dorsal skin from the SQ injection site. Tissue samples were also collected to determine glycogen concentration 14 days following the last dose of the study (i.e., 14 days post dose 4).

GAA KO mice [2] = assay: Tissue GAA activity after repeat SQ with varying 1-DNJ (Example 16); conditions: Lumizyme 20 mg/kg SQ alone, 4 doses, 3 days after last dose
Protocol: (§2) 14-week old male GAA KO mice in groups of 7 were used in the present study. Each group of mice was administered one of the following treatments:
(2) Lumizyme® alone (20 mg/kg) delivered subcutaneously (SQ);
(3) Co-formulated Lumizyme® (20 mg/kg) and 1-DNJ (3 mg/kg) SQ.
(4) Co-formulated Lumizyme® (20 mg/kg) and 1-DNJ (10 mg/kg) SQ.
(5) Co-formulated Lumizyme® (20 mg/kg) and 1-DNJ (30 mg/kg) SQ.
(§3) Each of the treatments was administered to their respective treatment group for a period of 2 weeks. The treatments were administered on Monday and Thursday of each week. SQ injections were administered between the shoulder blades of each mouse receiving treatment. A total of 4 doses were administered to each study animal.
as §1, with “heart, tongue,” for “heart,”, “diaphragm,” for “diaphragm, tongue, brain, spleen, liver, biceps,”, “quads,” for “quadriceps, soleus,”
(§4) FIGS. 47-54 show tissue GAA activity 3 days following the final administration, and glycogen levels 14 days following the final administration. GAA activities in tissues were determined using a 4-MUG fluorogenic substrate assay. Glycogen levels were determined using a glycogen assay (see Example 9 for method). Lumizyme® alone administered subcutaneously led to uptake of enzyme in all investigated tissues following repeat administrations.

GAA KO mice [3] = assay: Tissue glycogen reduction after repeat SQ with varying 1-DNJ (Example 16); conditions: Lumizyme 20 mg/kg SQ alone, 4 administrations, 14 days after last
Protocol: as §2, §3
as §1, with “heart, tongue,” for “heart,”, “diaphragm,” for “diaphragm, tongue, brain, spleen, liver, biceps,”, “quads,” for “quadriceps, soleus,”
as §4

Substance: Lumizyme®: alglucosidase alfa, recombinant human acid α-glucosidase from Genzyme Corporation
- rhGAA activity uptake (GAA KO mice [1]; Biceps): 56.0 nmol/mg/h
- rhGAA activity uptake (GAA KO mice [1]; Diaphragm): 4.2 nmol/mg/h
- rhGAA activity uptake (GAA KO mice [1]; Gastrocnemius): 2.0 nmol/mg/h
- rhGAA activity uptake (GAA KO mice [1]; Heart): 1.9 nmol/mg/h
- rhGAA activity uptake (GAA KO mice [1]; Quadriceps): 2.1 nmol/mg/h
- rhGAA activity uptake (GAA KO mice [1]; Skin): 75 nmol/mg/h
- rhGAA activity uptake (GAA KO mice [1]; Soleus): 2.7 nmol/mg/h
- rhGAA activity uptake (GAA KO mice [1]; Tongue): 2.7 nmol/mg/h
- rhGAA activity uptake (GAA KO mice [1]; Triceps): 88.0 nmol/mg/h
- GAA Activity (GAA KO mice [2]; Biceps): 45.9 nmol/mg/h
- GAA Activity (GAA KO mice [2]; Diaphragm): 10.6 nmol/mg/h
- GAA Activity (GAA KO mice [2]; Gastrocnemius): 1 nmol/mg/h
- GAA Activity (GAA KO mice [2]; Heart): 1.9 nmol/mg/h
- GAA Activity (GAA KO mice [2]; Quadriceps): 1.3 nmol/mg/h
- GAA Activity (GAA KO mice [2]; Skin): 43.9 nmol/mg/h
- GAA Activity (GAA KO mice [2]; Soleus): 0.9 nmol/mg/h
- GAA Activity (GAA KO mice [2]; Tongue): 2.3 nmol/mg/h
- GAA Activity (GAA KO mice [2]; Triceps): 151.3 nmol/mg/h
- Glycogen (% Reduction) (GAA KO mice [3]; Biceps): 45%
- Glycogen (% Reduction) (GAA KO mice [3]; Diaphragm): 8%
- Glycogen (% Reduction) (GAA KO mice [3]; Gastrocnemius): 10%
- Glycogen (% Reduction) (GAA KO mice [3]; Heart): 15%
- Glycogen (% Reduction) (GAA KO mice [3]; Quadriceps): 9%
- Glycogen (% Reduction) (GAA KO mice [3]; Skin): 15%
- Glycogen (% Reduction) (GAA KO mice [3]; Tongue): 10%
- Glycogen (% Reduction) (GAA KO mice [3]; Triceps): 64%
